{"source": "paper PMC5458393", "about": "“Crystal structure of N-acetylmannosamine kinase from Fusobacterium nucleatum” (Acta Crystallographica. Section F, Structural Biology …, 2017)", "proteins": {"B1": {"name": "Fusobacterium nucleatum N-acetylmannosamine kinase (enzyme, F. nucleatum)", "chain": "ITSLYKKAGFMNILAIDIGGTMIKYGLVSFDGKILSTDKIKTEASKGLNNILNKIDNIFKRYKENNPVGIAVSGTGQINGMIGKVIGGNPIIPNWIGTNLVKILEEKYNLPIVLENDVNCVALGEKWVGAGKDLSNFICLTIGTGIGGGILLNNQLFRGENFVAGEFGHILIKKGEFEQFASTTALIRLVKERTGKTLNGKEIFDLEKKEILEYQEIISEWIENLTDGLSSIIYCFNPANIILGGGVIEQGEPLINRIKNSLFKKIGPQFKEKLNITQAKLGNNAGMIGASYLLLEKINKR", "notes": "N-acetylmannosamine kinase (NanK; EC 2.7.1.60) of Fusobacterium nucleatum, synthetic gene; primers run from the start codon to the stop codon; The tag was not removed; also called FnNanK; F. nucleatum NanK; source: E. coli BL21(DE3), purified (HisTrap FF, Superdex 200 size-exclusion); not shown: His6, N-terminal, kept"}}, "target": "the molecule itself", "assay": "crystal structure; apo FnNanK at 14 mg/ml; sitting-drop vapour diffusion, 293 K; 0.2 M lithium sulfate, 0.1 M Tris-HCl pH 8.5, 30% PEG 4000; 2.23 A; one homodimer in the asymmetric unit"}
{"protein": "B1", "values": [{"measurement": "stoichiometry N", "value": 2}]}
